Legend:
[1] = target: RGS7/TS-Gβ5 duplex (human) (UniProt P49802); test: pull-down; Expi293 cells co-transfected with RGS7, TS-Gβ5, R7BP-HIS and either WDR61 (sample A) or R7BPΔNC (sample B); lysate on MagStrep type3 XT beads, 4 °C, one hour; Western blot with anti-Gβ5 and anti-R7BP, bands quantified
[2] = target: R7BPΔNC (construct R7BPΔNC-TEV-TS) (human) (UniProt Q6MZT1); test: SPR; OpenSPR (Nicoya), Streptavidin sensor chip; tagged R7BP variant as ligand, purified R7-RGS/Gβ5 duplex as analyte at 3–5 concentrations; PBS pH 7.4, 0.005% Tween20; 25 µL per minute; 1:1-binding model; two independent experiments

RGS11/Gβ5 duplex, sequence (O94810 whole entry): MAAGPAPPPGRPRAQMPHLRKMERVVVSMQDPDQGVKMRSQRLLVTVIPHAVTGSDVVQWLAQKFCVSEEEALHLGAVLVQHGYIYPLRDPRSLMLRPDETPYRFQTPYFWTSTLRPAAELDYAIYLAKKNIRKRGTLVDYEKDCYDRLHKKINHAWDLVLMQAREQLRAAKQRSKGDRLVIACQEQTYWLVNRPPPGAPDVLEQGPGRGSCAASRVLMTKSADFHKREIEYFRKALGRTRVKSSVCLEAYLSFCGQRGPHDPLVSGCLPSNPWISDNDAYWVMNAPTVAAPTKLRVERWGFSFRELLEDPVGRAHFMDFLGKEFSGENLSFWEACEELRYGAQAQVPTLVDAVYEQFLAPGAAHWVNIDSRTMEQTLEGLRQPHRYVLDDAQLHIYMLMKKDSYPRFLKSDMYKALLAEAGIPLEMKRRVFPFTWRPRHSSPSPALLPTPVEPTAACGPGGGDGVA
RGS11/Gβ5 duplex, sequence (O14775 43-395): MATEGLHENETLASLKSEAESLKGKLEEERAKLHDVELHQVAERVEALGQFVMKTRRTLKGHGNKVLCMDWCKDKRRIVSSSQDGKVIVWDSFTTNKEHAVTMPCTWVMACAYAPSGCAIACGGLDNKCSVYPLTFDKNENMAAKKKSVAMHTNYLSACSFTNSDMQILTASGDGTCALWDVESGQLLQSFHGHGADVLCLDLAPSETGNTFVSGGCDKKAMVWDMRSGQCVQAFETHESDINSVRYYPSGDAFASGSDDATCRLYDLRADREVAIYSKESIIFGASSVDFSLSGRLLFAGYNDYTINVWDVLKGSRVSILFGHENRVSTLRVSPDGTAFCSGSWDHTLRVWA
RGS6/Gβ5 duplex, sequence (P49758 whole entry): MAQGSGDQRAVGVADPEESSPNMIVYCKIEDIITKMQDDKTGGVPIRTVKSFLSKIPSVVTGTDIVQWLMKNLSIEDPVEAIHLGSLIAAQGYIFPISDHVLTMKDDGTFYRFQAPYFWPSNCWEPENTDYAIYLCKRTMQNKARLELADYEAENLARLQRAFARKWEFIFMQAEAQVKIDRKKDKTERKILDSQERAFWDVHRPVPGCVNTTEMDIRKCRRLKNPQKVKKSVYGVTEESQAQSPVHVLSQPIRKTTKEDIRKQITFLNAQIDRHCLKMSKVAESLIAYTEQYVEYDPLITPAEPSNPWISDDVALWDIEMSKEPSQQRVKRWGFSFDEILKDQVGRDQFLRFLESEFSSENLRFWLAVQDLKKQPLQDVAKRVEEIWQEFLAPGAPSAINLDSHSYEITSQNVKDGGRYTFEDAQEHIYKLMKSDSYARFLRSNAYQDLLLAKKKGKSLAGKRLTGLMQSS
RGS6/Gβ5 duplex, sequence (O14775 43-395): as the sequence (O14775 43-395) above
RGS9/Gβ5 duplex, sequence (O75916 whole entry): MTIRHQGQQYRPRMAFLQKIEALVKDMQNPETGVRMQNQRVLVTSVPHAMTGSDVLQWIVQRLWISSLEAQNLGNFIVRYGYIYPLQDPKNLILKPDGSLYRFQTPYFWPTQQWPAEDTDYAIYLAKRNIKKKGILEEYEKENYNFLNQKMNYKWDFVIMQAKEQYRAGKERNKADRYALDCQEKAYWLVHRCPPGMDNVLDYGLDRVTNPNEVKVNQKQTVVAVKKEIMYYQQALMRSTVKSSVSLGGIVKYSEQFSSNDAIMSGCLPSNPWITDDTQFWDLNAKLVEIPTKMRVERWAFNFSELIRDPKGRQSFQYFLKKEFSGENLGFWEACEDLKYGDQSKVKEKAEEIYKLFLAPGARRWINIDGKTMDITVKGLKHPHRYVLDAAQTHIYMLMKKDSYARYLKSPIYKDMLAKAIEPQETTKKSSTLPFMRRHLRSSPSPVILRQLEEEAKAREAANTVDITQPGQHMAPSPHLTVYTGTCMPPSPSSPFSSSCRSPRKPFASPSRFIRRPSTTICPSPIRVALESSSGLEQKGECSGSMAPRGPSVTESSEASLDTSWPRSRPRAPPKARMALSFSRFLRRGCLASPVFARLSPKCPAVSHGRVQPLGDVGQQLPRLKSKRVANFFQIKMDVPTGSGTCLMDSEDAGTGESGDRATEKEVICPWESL
RGS9/Gβ5 duplex, sequence (O14775 43-395): as the sequence (O14775 43-395) above
RGS7/Gβ5 duplex, sequence (P49802 whole entry): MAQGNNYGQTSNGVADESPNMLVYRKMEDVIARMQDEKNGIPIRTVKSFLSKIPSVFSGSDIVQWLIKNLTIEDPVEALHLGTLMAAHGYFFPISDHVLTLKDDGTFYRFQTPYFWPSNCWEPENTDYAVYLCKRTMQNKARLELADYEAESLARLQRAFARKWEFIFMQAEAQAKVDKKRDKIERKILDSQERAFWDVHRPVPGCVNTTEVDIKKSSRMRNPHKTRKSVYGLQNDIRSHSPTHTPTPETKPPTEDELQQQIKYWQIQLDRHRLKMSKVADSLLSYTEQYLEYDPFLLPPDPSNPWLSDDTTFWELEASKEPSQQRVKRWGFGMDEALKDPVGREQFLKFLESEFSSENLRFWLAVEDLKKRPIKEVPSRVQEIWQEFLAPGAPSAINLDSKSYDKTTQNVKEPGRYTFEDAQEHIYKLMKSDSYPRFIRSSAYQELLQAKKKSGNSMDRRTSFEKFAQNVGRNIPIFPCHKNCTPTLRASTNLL
RGS7/Gβ5 duplex, sequence (O14775 43-395): as the sequence (O14775 43-395) above
RGS7/TS-Gβ5 duplex (human), sequence (P49802 whole entry, chain 1 of 2): as the sequence (P49802 whole entry) above
RGS7/TS-Gβ5 duplex (human), sequence (O14775 43-395, chain 2 of 2, further chain): as the sequence (O14775 43-395) above

“R7BPΔNC (construct R7BPΔNC-TEV-TS) (from UniProt Q6MZT1 21-223) (domain or fragment)” gave a percent reduction of the binding of R7BP-FL with the RGS7/Gβ5 duplex [1] of 50%.
In the case of “RGS6/Gβ5 duplex (from UniProt P49758 1-472; O14775-2 1-353) (complex)”, the Kd [2] is reported as 1.5 nM.
In the case of “RGS7/Gβ5 duplex (from UniProt P49802 1-495; O14775-2 1-353) (complex)”, the Kd [2] is reported as 2.3 nM.
With “RGS9/Gβ5 duplex (from UniProt O75916 1-674; O14775-2 1-353) (complex)” the Kd [2] was 3.2 nM.
Work on “RGS11/Gβ5 duplex (from UniProt O94810 1-467; O14775-2 1-353) (complex)” yielded a Kd [2] of 1.5 nM.

Reference: paper PMC6744478
